From IntAct's records for PubMed 16990133 come the findings set out here.

B1: Protein SST2 (Saccharomyces cerevisiae), P11972 (parent)
chain: MVDKNRTLHELSSKNFSRTPNGLIFTNDLKTVYSIFLICLDLKEKKHSSDTKSFLLTAFTKHFHFTFTYQEAIKAMGQLELKVDMNTTCINVSYNIKPSLARHLLTLFMSSKLLHTPQDRTRGEPKEKVLFQPTPKGVAVLQKYVRDIGLKTMPDILLSSFNSMKLFTFERSSVTDSIIHSDYLIHILFIKMMGAKPNVWSPTNADDPLPCLSSLLEYTNNDDTFTFEKSKPEQGWQAQIGNIDINDLERVSPLAHRFFTNPDSESHTQYYVSNAGIRLFENKTFGTSKKIVIKYTFTTKAIWQWIMDCTDIMHVKEAVSLAALFLKTGLIVPVLLQPSRTDKKKFQISRSSFFTLSKRGWDLVSWTGCKSNNIRAPNGSTIDLDFTLRGHMTVRDEKKTLDDSEGFSQDMLISSSNLNKLDYVLTDPGMRYLFRRHLEKELCVENLDVFIEIKRFLKKMTILKKLIDSKHCDKKSNTSTSKNNIVKTIDSALMKQANECLEMAYHIYSSYIMIGSPYQLNIHHNLRQNISDIMLHPHSPLSEHFPTNLYDPSPASAESAASSISSTEADTLGEPPEVSLKPSKNLSNENCSFKKQGFKHQLKEYKPAPLTLAETHSPNASVENSHTIVRYGMDNTQNDTKSVESFPATLKVLRKLYPLFEIVSNEMYRLMNNDSFQKFTQSDVYKDASALIEIQEKC
partner: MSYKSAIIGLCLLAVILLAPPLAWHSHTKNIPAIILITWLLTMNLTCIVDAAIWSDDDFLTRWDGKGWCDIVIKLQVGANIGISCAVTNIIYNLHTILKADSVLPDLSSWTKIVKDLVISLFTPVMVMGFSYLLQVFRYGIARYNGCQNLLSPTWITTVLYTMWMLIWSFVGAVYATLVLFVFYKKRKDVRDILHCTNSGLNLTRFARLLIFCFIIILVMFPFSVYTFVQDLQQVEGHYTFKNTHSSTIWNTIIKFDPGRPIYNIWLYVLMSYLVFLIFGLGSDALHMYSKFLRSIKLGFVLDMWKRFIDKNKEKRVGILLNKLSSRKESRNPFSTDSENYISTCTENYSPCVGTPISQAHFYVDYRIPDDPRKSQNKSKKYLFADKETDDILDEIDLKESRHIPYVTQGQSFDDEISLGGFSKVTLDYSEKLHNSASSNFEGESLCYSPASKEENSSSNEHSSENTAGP
B2: Pheromone alpha factor receptor (Saccharomyces cerevisiae (Baker's yeast)), P0CI39 (parent)
chain: MSDAAPSLSNLFYDPTYNPGQSTINYTSIYGNGSTITFDELQGLVNSTVTQAIMFGVRCGAAALTLIVMWMTSRSRKTPIFIINQVSLFLIILHSALYFKYLLSNYSSVTYALTGFPQFISRGDVHVYGATNIIQVLLVASIETSLVFQIKVIFTGDNFKRIGLMLTSISFTLGIATVTMYFVSAVKGMIVTYNDVSATQDKYFNASTILLASSINFMSFVLVVKLILAIRSRRFLGLKQFDSFHILLIMSCQSLLVPSIIFILAYSLKPNQGTDVLTTVATLLAVLSLPLSSMWATAANNASKTNTITSDFTTSTDRFYPGTLSSFQTDSINNDAKSSLRSRLYDLYPRRKETTSDKHSERTFVSETADDIEKNQFYQLPTPTSSKNTRIGPFADASYKEGEVEPVDMYTPDTAADEEARKFWTEDNNNL
partner: B1 chain
B3: Pheromone a factor receptor (Saccharomyces cerevisiae), P06783 (parent)
chain: B1 partner
partner: B1 chain
B4: Protein SST2 (Saccharomyces cerevisiae), P11972 (parent)
chain: B1 chain
partner: B2 chain

In one experiment the parent is B1. The note with it: with ste3_yeast STE3, P06783.
As for Q304N, the “effect of a mutation on the interaction” value is reported as “disrupting interaction”.

The next experiment covers variants of B2. The note with it: with sst2_yeast SST2, P11972.
For the variant K337R;K352R;K358R;K374R;K387R;K400R;K422R, the “effect of a mutation on the interaction” value is reported as “increasing interaction”.

Variants of B3 are the subject of a further experiment. The note with it: with sst2_yeast SST2, P11972.
Regarding K424R;K432R;K453R, the “effect of a mutation on the interaction” value is on record as “increasing interaction”.

Variants of B4 are the subject of another experiment. The note with it: with ste2_yeasx STE2, P0CI39.
As to Q304L, the “effect of a mutation on the interaction” value is given as “disrupting interaction”.

Take Q304E: the “effect of a mutation on the interaction” value is recorded as “disrupting interaction”.

In the next experiment the parent is B4. The note with it: with ste2_yeasx STE2, P0CI39. The source holds these as a separate data set.
As to Q304N, the “effect of a mutation on the interaction” value is “disrupting interaction”.
